Reference: patent publication US7459439B2, “Granulysin peptides and methods of use thereof” (The Regents of the University of California, priority 2003, dated 2008)

What was measured:
[1] = test system: TNF-α production by monocytes; assay: Inhibition of TNF-α production by monocytes; format: cell-based; conditions: FIG. 4b
[2] = test system: IL-12 production by monocytes; assay: Inhibition of IL-12 production by monocytes; format: cell-based; conditions: FIG. 4a
[3] = test system: Propionibacterium acnes; assay: Killing of / antimicrobial activity against P. acnes; conditions: FIG. 1-3
Text: The susceptibility of a particular microbe or virus to killing or inhibition by granulysins may be determined by in vitro testing, as detailed in the experimental section. Typically a culture of the microbe is combined with granulysins at varying concentrations for a period of time sufficient to allow the protein to act, usually ranging from about one hour to one day. The viable microbes are then counted, and the level of killing determined.

[4] = test system: bacterial membranes; conditions: Ernst et al. (2000); cited from earlier work
[5] = test system: M. tuberculosis; conditions: cited from earlier work
[6] = test system: bacteria, parasites and fungi; assay: Range of antimicrobial activity of granulysin; format: cell-based; conditions: experiments performed in applicant's laboratory
Text: Granulysin is a 9 kDa basic (arginine-rich) protein and is a member of a larger group of proteins, referred to as saposin-like proteins (sphingolipid activator protein like protein=SAPLIP). This family has been highly conserved for almost a billion years, from amoebas to humans. […] This family includes NK-lysin, isolated from pig intestines, and amoebapores, used by amoebas to kill bacterial prey. […] We have synthesized a shorter granulysin peptide 20 amino acid in length and tested for antimicrobial activity. Further modification of this peptide was done by substituting a more hydrophobic amino acid residue, tryptophan at position 44, and tested for antimicrobial activity.

## granulysin peptide #31-50(W44): Modified 20 amino acid granulysin peptide 31-50 with tryptophan substituted at position 44; probably SEQ ID NO:3 TRVSRTGRSRWRDWSRNFMR
[1]
  inhibition of TNF-α production by monocytes: able to inhibit
[2]
  inhibition of IL-12 production by monocytes: able to inhibit IL-12

## granulysin peptide #31-50: Synthetic peptide of residues 31-50 of human granulysin, SEQ ID NO:2 (TRVCRTGRSRWRDVCRNFMR) (TRVCRTGRSRWRDVCRNFMR; H. sapiens)
[3]
  killing of P. acnes / antimicrobial activity against P. acnes: effective at killing P. acnes

B1: granulysin: 9 kDa arginine-rich protein, late T cell activation marker, member of saposin-like proteins (protein)
chain: GRDYRTCLTIVQKLKKMVDKPTQRSVSNAATRVCRTGRSRWRDVCRNFMRRYQSRVIQGLVAGETAQQICEDLR
modifications: H. sapiens
[4]
  alteration of bacterial membranes: increasing their permeability, inducing lesions on the surface of bacteria and separation of the cell wall and membranes from the cytoplasm
[5]
  effect on M. tuberculosis by electron microscopy: trigger fluid accumulation in the periplasm of M. tuberculosis
[6]
  range of antimicrobial activity: wide range of antimicrobial activity against bacteria, parasites and fungi
[3]
  killing of P. acnes / antimicrobial activity against P. acnes: effective at killing Propionibacterium acnes
